# Earlier results as cited in patent publication US9168216B2, “Carrier comprising one or more di and/or mono-(electron transfer agent) phosphate derivatives or complexes thereof” (priority 2005, dated 2015).
# Settings: subcutaneous, 25 μg/kg body weight
substance,measurement,value
PTH: human parathyroid hormone (fragment 1-34),Time of peak PTH level in rat plasma after injection,40 to 60 min
same,Time to complete turnover of PTH in plasma,≤ 4 h
